T1: human PAR-1 (human, UniProt P25116 22-425)
T1 construct: also called huPAR-1
T1 sequence: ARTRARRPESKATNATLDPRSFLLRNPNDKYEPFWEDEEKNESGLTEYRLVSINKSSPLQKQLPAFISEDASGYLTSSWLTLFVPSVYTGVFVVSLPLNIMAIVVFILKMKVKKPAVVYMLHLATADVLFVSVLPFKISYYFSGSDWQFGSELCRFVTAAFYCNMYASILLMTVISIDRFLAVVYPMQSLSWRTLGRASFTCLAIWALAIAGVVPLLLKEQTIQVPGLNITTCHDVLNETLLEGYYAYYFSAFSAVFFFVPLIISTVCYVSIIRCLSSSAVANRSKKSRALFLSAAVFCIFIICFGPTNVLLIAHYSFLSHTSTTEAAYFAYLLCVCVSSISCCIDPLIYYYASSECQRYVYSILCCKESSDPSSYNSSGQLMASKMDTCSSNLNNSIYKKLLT

T2: human PAR-2 (human, UniProt P55085 26-397)
T2 sequence: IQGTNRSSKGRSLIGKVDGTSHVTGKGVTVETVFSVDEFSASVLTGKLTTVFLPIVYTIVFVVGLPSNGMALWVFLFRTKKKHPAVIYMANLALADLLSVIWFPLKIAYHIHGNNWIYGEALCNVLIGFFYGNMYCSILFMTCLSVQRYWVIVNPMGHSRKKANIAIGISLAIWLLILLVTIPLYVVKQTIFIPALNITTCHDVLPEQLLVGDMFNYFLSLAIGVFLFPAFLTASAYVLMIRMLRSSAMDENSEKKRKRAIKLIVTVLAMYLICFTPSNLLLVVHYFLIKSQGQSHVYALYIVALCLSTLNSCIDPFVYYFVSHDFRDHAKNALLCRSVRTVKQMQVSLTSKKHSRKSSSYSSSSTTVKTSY


How the values were obtained:
[1] = biological target: T1, human PAR-1; experiment: flow cytometry, transfected Expi293F cells
Method: Paired heavy and light chains encoded by these sequence pairs were expressed as a full length human IgG4 isotype antibodies and assessed for PAR-2 binding and selectivity by flow cytometry. […] Cells were used for flow cytometric analysis 36-48 hours post-transfection. Use of Nt-PAR-2 as a target allowed antibodies which bound the N-terminal residues of PAR-2 (which comprise the protease-cleavage sites on PAR-2) to be distinguished from antibodies which bound other extracellular sites on PAR-2, such as the PAR-2-activating ligand-binding site(s). Expi293F cells, transiently expressing one of each of the different target proteins were labelled with different intensities of a single fluorphor Encoder dye (Intellicyt) for 10 mins at either 1 in 250 dilution for high intensity and/or 1 in 1500 dilution for moderate intensity, enabling simultaneous analysis of multiple cell populations. After washing the cells were then mixed in an equal ratio with the unlabeled cell type and analyzed for antibody binding.
The cells were plated in 96 well plates at 2×10⁵ cells/well. Following a wash step using Phosphate buffered saline (PBS), the primary antibody (anti-PAR-2 antibody) was added at a concentration of 10 μg/mL in 50 μL of FACS buffer (0.5% w/v BSA in PBS) to each well and incubated for 10-15 mins. Following a wash step, secondary antibody (anti-human Fc-FITC) was added to the wells at 1:200 dilution in 50 μL for 10-15 mins. Following a washing step, the cells were re-suspended in fluorescence-activated cell sorting (FACS) buffer. The flow cytometry analysis was performed on an Intellicyt iQue screener. Gates were drawn around the different intensities of encoder dye-positive cells and these populations were analyzed separately from each other and the unlabeled cells for binding by the primary antibody.

[2] = biological target: T2, human PAR-2; experiment: cell-based or functional assay

Binder | binding result [1] | IC50, PAR-2 β-arrestin cell assay [2] [µM]
Ab140 (antibody, human IgG4, V domains shown, also called Anti-PAR-2 antibody # 140) VH: EVQLVESGGGLVQPKGSLKLSCAASGFTFNSYAMHWVRQAPGKGLEWVACIRSKSSYYATYYADSVKDRFTISRHDSQSMLYLQMNNLKTEDTAMYYCVREDYYGSSYDYWGQGTTLTVSS VL: QIVLTQSPAIMSASLGERVTMTCTASSSVSSSYLHWYQQKPGSSPKLWIYATSNLASGVPARFSGSGSGTSYSLTISSMEAEDAATYYCHQYHRSPLTFGAGTKLELK | no binding (tested: 10 µg/mL) | 0.0201
Ab189 (antibody, human IgG4, V domains shown, also called Anti-PAR-2 antibody # 189) VH: EVQLVESGGGLVQPKGSLKLSCAASGFTFNTYAMHWVRQAPGKGLEWVARIRSKTTNYATYYADSVKDRFTISRDDSQSMLYLQISNLKTEDTAMYYCVREDYYGSSLDYWGQGTTLTVSS VL: QIVLTQSPAIMSASLGERVTMTCTASSSVISSYLHWYQQKPGSSPKLWIFSTSNLASGVPARFSGSGSGTSYSLTISTMEAEDAATYYCHQYHRSPLTFGAGTKLELK | no binding (tested: 10 µg/mL) | 0.123
Ab192 (antibody, human IgG4, V domains shown, also called Anti-PAR-2 antibody # 192) VH: QVQLQQPGTELVKPGASVKLSCKASGYTFTSYWMHWIKQRPGQGLEWIGNINPSSGGTNYNEKFKTKATLTVDKSSSTAYMQLSSLTSEDSAVYYCAGEAYSNYVAWFAYWGQGTLVTVSS VL: ENVLTQSPAIMSASLGEKVTMSCRASSSVNYMYWYQQKSDASPKLWIYYTSNLAPGVPARFSGSGSGTSYSLTISSMEGEDAATYYCQQFTTSPYTFGGGTKLEIK | no binding (tested: 10 µg/mL) | 0.1
Ab209 (antibody, human IgG4, V domains shown, also called Anti-PAR-2 antibody # 209) VH: QVQLQQPGTELVKPGASVKLSCKASGYTFTSYWMHWIKQRPGQGLEWIGNINPSTGSTNFNVKFKTKATLTVDKSSSTTYMQLNSLTSEDSAVYYCAGEAYSNYVAWFAYWGQGTLVTVSS VL: ENVLTQSPAIMSASLGEKVTMSCRASSSVNYMYWYRQKSDASPKLWIYYTSNLAPGVPTRFSGSGSGTSYSLTISSMEGEDAATYYCQQFTTSPYTFGGGTKLEIK | no binding (tested: 10 µg/mL) | 0.0655
Ab201 (antibody, human IgG4, V domains shown) VH: QVQLQQSGPELVKPGASVKISCKASGFSFTSFYIHWVNQRPGQGLEWIGWIYPGSGNTLYNEKFKGKATLTADTSSSTAYIHLSSLTSEDSAVYYCTRGPLFYGSSHWYFDVWGMGTTVTVSS VL: EVQITQSPSYLAASPGETITINCRASKSISKYLAWYQEKPGKTNKLLIYSGSTLQSGIPSRFSGSGSGTDFTLTISSLEPEDFAMYYCQQHNKYPLTFGAGTRLELK | no binding (tested: 10 µg/mL) | 0.0107
Ab225 (antibody, human IgG4, V domains shown, also called Anti-PAR-2 antibody # 225) VH: QVQLKESGPGLVQPSQTLSLTCTVSGFSLTSYHVSWVRQSPGKGLEWMGIIWTGGSTAYNSLLKSRLSISRDTSKSQVFLKMNSLQTEDTATYYCARRGAYPFYFDYWGQGVMVTVSS VL: EIVLTQSPTTMAASPGEKVTITCRASSSVRSMYWYQQKSGASPKPWIYETSKLTSGVPDRFSGSGSGTSYSFTISSMGTEDAGTYYCHQWTTTPYTFGAGTKLELK | no binding (tested: 10 µg/mL) | 0.0034
Ab261 (antibody, human IgG4, V domains shown, also called Anti-PAR-2 antibody # 261) VH: EVQLVESGGGLVQPGRSLKLSCVASGFTFNNYWMTWIRQAPGKGLEWVASITNTGGNTYYPDSVKGRFTISRDNAKSTLYLQMNSLRSEDTATYYCTRDRIIRGADWFAYWGQGTLVTVSS VL: DIQMTQSPHSLSASLGETVSIECLASEGISNYLAWFQQKPGKSPQLLIYYASSLQDGVPSRFSGSGSGTQYSLKISNMQPEDEGVYYCQQGYKYPWTFGGGTKLELK | no binding (tested: 10 µg/mL) | 0.0199
Ab227 (antibody, human IgG4, V domains shown, also called Anti-PAR-2 antibody # 227) VH: EVQLVESGGGLVQPGRSLKLSCVASGFTFNNYWMTWIRQAPGKGLEWVASITNSGGRTYYPDSVKGRFTVSRDSAKSTLYLQMNSLRSEDTATYYCTRDRIIRGSTWFTYWGQGTLVTVSS VL: DIQMTQSPHSLSASLGETVSIECLASEGISNYLAWFQQKPGKSPQLLIYYASSLQDGVPSRFSGSGSGTQYSLKISNMQPEDEGVYYCQQGYKYPWTFGGGTELELK | no binding (tested: 10 µg/mL) | 0.0102
Ab228 (antibody, human IgG4, V domains shown) VH: EVQLVESGGGLVQPGRSLKLSCVVSGFTFNNYWMTWIRQAPGKGLEWVASITNSGGNTYYPDSVKGRFTISRDNAKSTLYLQMNSLRSEDTATYYCTRDRIIRGSTWFAYWGQGTLVTVSS VL: DIQMTQSPHSLSASLGETVSIECLASEGISNYLAWYQQKPGKSPQLLIYYASSLQDGVPSRFSGSGSGTQYSLKISNMQPEDEGVYYCHQGYKYPWTFGGGTKLELK | no binding (tested: 10 µg/mL) | 0.0333
Ab380 (antibody, human IgG4, V domains shown, also called Anti-PAR-2 antibody # 380) VH: EVQLVESGGGLVQPGRSLKLSCVATGFTFNNYWMTWIRQAPGKGLEWVASITNSGGNTYYPDSVKGRFTISRDDAKSTLYLQMNSLRSEDTATYYCTRVRVYYGSNWFVYWGQGTLVTVSS VL: DIQMTQSPHSLSASLGETVSIECLASEGISNYLAWFQQKPGKSPQLLIYYASSLQDGVPSRFSGSGSGTQYSLKISNMQPEDEGVYYCQQGYKYPWTFGGGTKLELK | no binding (tested: 10 µg/mL) | 0.0571
Ab435 (antibody, human IgG4, V domains shown) VH: EVQLVESGGGLVQPGRSLKLSCVGSGFTFNNYWMTWIRQAPGWGLEWVASITNTGGRTYYPDSVKGRFTISRDNAKSTLYLQMNSLRSEDTATYYCTRDRVYYGSNWFVYWGQGTLVTVSS VL: DIQMTQSPHSLSASLGETVSIECLASEGISNYLAWYQQKPGKSPQLLIYYASSLQDGVPSRFSGSGSGTQYSLKISNMQPEDEGIYYCQQHYKYPWTFGGGTKLELK | no binding (tested: 10 µg/mL) | 0.0538
Ab234 (antibody, human IgG4, V domains shown, also called Anti-PAR-2 antibody # 234) VH: EVQLVETGGGLVQPGRSLKLSCVASGFTFNNYWLYWIRQAPGKGLEWVSSINNDGGGTYYPDSVKGRFTVSRDNAENTVYLQMNSLRSEDTATYYCARDRAFIRGRFAYWGQGTLVTVSS VL: EIVLTQSPTTMAASPGEKVTLTCRASSSVIYMHWYQQRSGASPKLWIYETSKLASGVPNRFGGSGSGTSYSLTINSMETEDAATYYCQQGSYYPWTFGGGTKLELK | no binding (tested: 10 µg/mL) | 0.0048
Ab245 (antibody, human IgG4, V domains shown, also called Anti-PAR-2 antibody # 245) VH: QVQLKESGPGLVQPSQTLFLTCTVSGFSLTSYHVSWVRQPPGKGLEWMGIIWTGGSTAYNSLLKPRLTISRDTSKSQVFLKMNSLRTEDTATYYCARRGLYPFYFDYWGQGVMVTVSS VL: EVVLTQSPTTMAASPGEKVTITCRATSSVSHMYWYQQKSGASPKPWIYETSKLASGVPDRFRGSGSGTSYSFTISSMETEDVATYYCHQWSSFPYTFGPGTKLELK | no binding (tested: 10 µg/mL) | 0.0038
Ab5 (antibody, human IgG4, V domains shown, also called Anti-PAR-2 antibody # 5) VH: QVQLQQPGSELVKPGASVKLSCKASGYTFTNYWMHWVKQRPGQGLEWIGMIHPNSDFSNYNEKFKKKATLTVDKSSSTAYMQLSSLTSEDSAVYFCAKGPNYYGSRYWYFDVWGTGTTVTVSS VL: DIVLTQSPTSLAVSLGQRATISCRASESVDSYGNSFLHWYQQKAGQPPKLLIYRTSNLESGIPARFSGSGSRTDFTLTINPVEADDVATYFCQQSNEDPYTFGGGTKLELK | no binding (tested: 10 µg/mL) | 0.0231
Ab248 (antibody, human IgG4, V domains shown, also called Anti-PAR-2 antibody # 248) VH: QVQLKESGPGLVQPSQTLSLTCTVSGFSLTNYHVSWVRQPPGKGLEWMGIIWTGGSTAYNSLLKSRLSISRDTSKSQVFLKMNSLQTEDTATYYCARRGLYPYYFDYWGQGVMVTVSS VL: EIVLTQSPTTLAASPGEKVTITCRASSRVSNMYWYQQKSGASPKAWIYETSKLASGVPDRFSGSGSGTSYSFTISSMETEDAATYYCHQWTSTPYTFGAGTKLELK | no binding (tested: 10 µg/mL) | 0.0046
